According to the supplement of paper PMC9170038:

Tested on: MS2 coat protein
Assay: apparent KD of MS2 coat protein; higher = weaker reporter binding
Conditions: Eterna round: R107
Outline: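 On-chip transcription from Illumina sequencing clusters produced the designed RNA switches. These were titrated with SNAP-549-labelled MS2 coat protein (twofold steps, 0.7 or 1.5 nM to 3 µM) in 100 mM Tris-HCl pH 7.5, 80 mM KCl, 4 mM MgCl2, with or without constant ligand. The apparent KD given is the per-design median of normalised cluster binding-curve fits.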

[1] = input ligand: theophylline 20 uM
[2] = input ligand: theophylline 2 mM
[3] = input ligand: tryptophan 2.4 mM

| Sequence | apparent KD of MS2 coat protein (input ligand: arginine 13.2 mM) | apparent KD of MS2 coat protein (input ligand: none) | apparent KD of MS2 coat protein [1] | apparent KD of MS2 coat protein [2] | apparent KD of MS2 coat protein [3] |
| --- | --- | --- | --- | --- | --- |
| UGACAUUGCUCAGAUACCAGACAUGAGCAUCAGCCAUGUACCAAGAGUACAUGUUAAAAUGUCCCUUGGCAGCUGAGCAAUGUCU [Mod of Eli's TheoBX5 #AlternateMS2 v2] | 73.6 nM | 67.6 nM | 203 nM | 452 nM | 60.1 nM |
| UGAUACCAGUCGGCCGCCACUAUGCUAGAUACUAGCAAUAAAUGGGAACAUGAGGAUCACCCAUGUAGGACCGGGACUGGUAUCU | 32.1 nM | 33.6 nM | 42.9 nM | 42.7 nM | 64 nM |
| UGAUAUGUGGGAAGGAGCGCAUACUUCACAUGAGGAUCACCCAUGUCAAGACGUGAGUCAGUGCAGGUAGGUCGCCUAGUUAUGA [Same State - Arginine B (Freestyle 19)] | 36.8 nM | 124 nM | 101 nM | 147 nM | 85.3 nM |
| UGAUGGUGCGGAAGGAGCGUGUAAGAACAAGAACAUGAGGAUCACCCAUGUAUUAAUUUAACACAGGUAGGUCGCCGUGUUAUUG [11.K] | 29.6 nM | 35.5 nM | 39.3 nM | 29.6 nM | 20.2 nM |
| UGAUGGUUCGGAAGGAGCGUGUAAGAACAAGAACAUGAGGAUCACCCAUGUAUUAAUUUAACACAGGUAGGUCGCCGGGUUAUUG [11.J] | 20.9 nM | 16.3 nM | 23.1 nM | 22.2 nM | 14.4 nM |
| UGCACUCAUGCGGCCGCCACUGUCGGCCGCCACUAAACAUGAGGAUCACCCAUGUAGGACCGGGACAGGACCGGGCAUGGGUGCU [TryBS - #DoubleAptamer 2] | 12.9 nM | 15.7 nM | 20.7 nM | 13.8 nM | 9.97 nM |
| UGGAGAUAGACGGCCGCCACUAACAUGAGGAUCACCCAUGUCGUCACGAAUGGAUGGCCCUAGAAUAGGACCGGGUCCGGAUUCA [theeternabot_exclusion_MS2_Trp_B_48] | 23.7 nM |  | 42.5 nM | 50.6 nM |  |
| UGGCAAGAGGGAAGGAGCGUCAGCAGAGUAACAUGAGGAUCACCCAUGUAGCACGUGGUGUGACAGGUAGGUCGCCCUCUGCCGU [SS-ArgB13] | 28.5 nM | 32.4 nM | 77.1 nM | 46 nM | 28.3 nM |
| UGGCAGUACAUGGGUUACUGCCAAGGUGAUACCAGCAUCGAAAGAUGCCCUUGGCAGCACCAACAUGAGGAUCACCCAUGUAAUA [(MT)''-(M)'-(T')-(Theo)-(Ms2)_Design1/22_8] | 68.5 nM | 234 nM | 210 nM | 53.9 nM | 247 nM |
| UGGGUACAUGAGGAUCACCCAUGUACUGAAGGAGCGAGAAAUAUCUCAGGUAGGUCGCAGACAUGAGGAUCACCCAUGUAGUAGG [Exclusion Arginine A GF 11] | 29.5 nM | 28.1 nM | 31.8 nM | 33.1 nM | 26.7 nM |
| UGGGUACAUGAGGAUCACCCAUGUACUGAAGGAGCGAGAAUUAUCUCAGGUAGGUCGCAGACAUGAGGAUCACCCAUGUAGUGGG [Exclusion Arginine A GF 13] | 15 nM | 18 nM | 22.7 nM | 20 nM | 17.7 nM |
| UGGGUAGAAUAGAUAGAUAGAUAAACUGAAGGAGCGAGAAUAAACUCAGGUAGGUCGCAGACAUGAGGAUCACCCAUGUAGAUGG [Same State Arginine A GF15] | 91.1 nM | 98.8 nM | 87.2 nM | 163 nM | 88.9 nM |
| UGGUAGCCACACUUCAAACAUCGACAAGAUACCAGUUAAUCAACGAACCCUUGGCAGCUUCGUACAUGAGGAUCACCCAUGUGGA [theeternabot_exclusion_MS2_Theo_A_6] | 18.2 nM |  | 24.2 nM |  | 19.5 nM |
| UGUAACAUGAGGAUCACCCAUGUGAGUGAUACCAGACUAGUAUUAGUCCCUUGGCAGCACGUUGGGCGAGUGUAUAGUCUAUGCG [Same State - Theophylline A (Freestyle 14)] | 89.6 nM |  | 113 nM |  | 80.3 nM |
| UGUACAUGAGGAUCACCCAUGUUACAUGAUACCAGACAUGAGAGUGUCCCUUGGCAGCAUGGAGCUGAUACGGCGGGAAGCCGGA [#09 SameState-TheophyllineA] | 26.1 nM |  | 40.4 nM |  | 27 nM |
| UGUACCAUGUCGGCCGCCACUCAUGAUAAACAUGAGGAUCACCCAUGUAGCGUCAAAGACGCUAUGAGGACCGGGACAUGGUACU [TryBS Zipper 2 #StaticStem #Zipper] | 32.5 nM |  | 49.2 nM | 45 nM |  |
| UGUAUGGACUGAAGGAGCGGAAGAUACCAUGAGGAUCACCCAUGGAAUAAGGCGAAAGCCUUCCAGGUAGGUCGCAGUCCAUACU | 16.1 nM | 18.3 nM | 23.9 nM | 23.9 nM | 19.8 nM |
| UGUAUGGACUGAAGGAGCGGGAAAUAAACUUGAGGAUCACCCAGGUAAUAGGCGAAAGCCACCCAGGUAGGUCGCAGUCCAUACU | 22 nM | 24.3 nM | 38.5 nM | 45.7 nM | 28.5 nM |
| UGUAUGUGAUCUGAUACCAGUCCAACUGGUAAAGCGUGAGGAUCACCCAUGCAAAAUUGGGACCCUUGGCAGCAGAUCGCAUACU | 48.6 nM | 337 nM | 290 nM | 208 nM | 185 nM |

| Sequence | apparent KD of MS2 coat protein (input ligand: arginine 13.2 mM) | apparent KD of MS2 coat protein (input ligand: none) | apparent KD of MS2 coat protein [1] | apparent KD of MS2 coat protein [2] | apparent KD of MS2 coat protein [3] |
| --- | --- | --- | --- | --- | --- |
| UGUAUGUGAUUUGAUACCAGACCAGCUGGUGGUACACGAGGAUCACCCGUGUAGGUUUGGGUCCCUUGGCAGCAAAUCGCAUACU [SS Theo B #24 Ms3] | 53.7 nM | 56.8 nM | 68.7 nM | 18.1 nM | 54.5 nM |
| UGUUAUGUGGGAAGGAGCGCAUACUUCACAUGAGGAUCACCCAUGUCAAGACGUGAGUCAGUGCAGGUAGGUCGCCUAGUUAAGA [Same State - Arginine B (Freestyle 17)] | 36 nM | 73.9 nM | 75.1 nM | 78.8 nM | 45 nM |
| UGUUUGGUGCGCGAGUGUUGGAUAAUUGAUACCAGUGUAGAAGAGCGCCCUUGGCAGCGAAUCCUAACAUGAGGAUCACCCAUGU [5.W] | 37.6 nM |  | 54.7 nM |  | 40.3 nM |
| UGUUUGGUGCGCGAGUGUUGGAUAAUUGAUACCAGUGUAGAAGUGCGCCCUUGGCAGCGAAUCCUAACAUGAGGAUCACCCAUGU [5.X] | 49.1 nM |  | 52.3 nM |  | 39 nM |
| UUAACGAGCUGAAGGAGCGCUCCUCAACAACAUGAGGAUCACCCAUGUACACAUAAUAGGGAGCAGGUAGGUCGCAGCAGGAUGG [ss-argB-?] | 17.4 nM | 15.3 nM | 23.4 nM | 17 nM | 15 nM |
| UUAAUCAUUGAUGAAAACAUUAAUGCAGAAGGAGCGUGAUAAAACACAGGUAGGUCGCUGAAGGGAACAUGAGGAUCACCCAUGU [AstrosSSArgA#16] | 27.3 nM | 28.1 nM | 36.5 nM | 33.6 nM | 30.8 nM |
| UUAAUCUUAGAAGAAAACUUUUAAGCAGAAGGAGCGUGAUAAAACACAGGUAGGUCGCUGAAGGGAACAUGAGGAUCACCCAUGU [AstrosSSArgA#18] | 29.3 nM | 22 nM | 28.9 nM | 29.4 nM | 23.1 nM |
| UUACAUGAGGAUCACCCAUGUCAUAAUGAUACCAGAUAGUUGAUGAUCCCUUGGCAGCAUAGUACCUAGACAUGUGAGUCAUAGG [Ab] | 116 nM |  | 130 nM |  | 76.8 nM |
| UUAGAUAUGACAGAUACCAGCGUGUUGUUGAACAUGAGGAUCACCCAUGUAGUGAUCGAGCGCCCUUGGCAGCUGGUGUGUUUGG [7.Q] | 77.6 nM |  | 174 nM |  | 225 nM |
| UUAUCUAUAUUCGAUACCAGUACCCUGGCCGCAAAUCCUAACAUGAGGAUCACCCAUGUGUACCCUUGGCAGCGGGUAUGGGUUU [XTheo B #29] | 21.5 nM |  | 35.1 nM |  | 24.2 nM |
| UUAUUUAACGGAAGGAGCGCGGAAAUUAAGGUGGGUAAACAUGAGGAUCACCCAUGUAAUCCGCAGGUAGGUCGCCGAUAUUUAU [#24 Exclusion - Arginine B] | 86.1 nM | 156 nM | 136 nM | 119 nM | 112 nM |
| UUCGUUUACGGAAGGAGCGACGGACAUCGGUGAUCUAUGCACAUGAGGAUCACCCAUGUACGUCAGGUAGGUCGCCGUUAAGAGU [XArg-B28] | 28.4 nM | 80.8 nM | 96.5 nM | 184 nM | 9.59 nM |
| UUGAUUACCCAAGCGUGAUGGUCCUAGGAACGAGGACCGGUACGGCCGCCACUCGCAAGCAAACAUGAGGAUCACCCAUGUUUAU [theeternabot_exclusion_MS2_Trp_A_19] | 11.2 nM |  | 15.9 nM | 14.1 nM |  |
| UUGGCACGGACGGCCGCCACUCUUUCACAUGAGGAUCACCCAUGUUAUCUAGUCCUCAGCAGAAAGAGGACCGGGUCGGAGUUGG [theeternabot_exclusion_MS2_Trp_B_13] | 75.1 nM |  | 168 nM | 214 nM |  |
| UUGGGUAUGCGAAGGAGCGGGAAAUAUAUAUAUAUAAUCCUAACAUGAGGAUCACCCAUGUCCCAGGUAGGUCGCGCAUAUUUGG [12.J] | 40.6 nM | 62.9 nM | 88.9 nM | 106 nM | 67.8 nM |
| UUGGUUAUGCGAAGGAGCGGGAAAUAUAUAUAUAUAAUCCUAACAUGAGGAUCACCCAUGUCCCAGGUAGGUCGCGCAUAGUUGG [12.I] | 45.2 nM | 69.5 nM | 80.3 nM | 83.3 nM | 69.1 nM |
| UUUACAUGAGGAUCACCCAUGUGCCAUGAUACCAGACAUGAAAAUGUCCCUUGGCAGCAUGAAUGAUUCAUAGGAUAAUUAUGGG [Obrany] | 69.4 nM |  | 146 nM |  | 80.9 nM |
| UUUACAUGAGGAUCACCCAUGUGCCAUGAUACCAGACAUGAAAAUGUCCCUUGGCAGCAUGAGUGAUUCAUCCGAAAGGAUGUUU [Jehnice] | 114 nM |  | 146 nM |  | 103 nM |
